Laboratory results from paper PMC11145253 (Proceedings of the National Academy of Sciences of the …, 2024).

Molecular target: T1, CTDNEP1ΔAH as it stands in the crystallized CTDNEP1ΔAH-linker-sNEP1R1-His6 fusion (human, UniProt O95476 40-244)
T1 sequence (looked up): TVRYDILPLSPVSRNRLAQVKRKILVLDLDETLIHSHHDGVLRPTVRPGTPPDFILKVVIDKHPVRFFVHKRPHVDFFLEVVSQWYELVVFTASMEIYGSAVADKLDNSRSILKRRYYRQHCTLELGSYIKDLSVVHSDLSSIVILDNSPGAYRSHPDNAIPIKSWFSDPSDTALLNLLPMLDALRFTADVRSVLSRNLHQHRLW
Test: crystal structure

Binder: GSAKGSES [linker peptide of the CTDNEP1ΔAH-linker-sNEP1R1-His6 fusion]
- binding result: binds
